Assays:
[1] = biological target: human CD16A-158V ECD fused to Avi-tagged and biotinylated monomeric Fc (silenced) (human); test: SPR
[2] = biological target: human CD16A-158F ECD fused to Avi-tagged and biotinylated monomeric Fc (silenced) (human) (UniProt P08637); test: SPR
UniProt P08637, sequence (P08637 17-208): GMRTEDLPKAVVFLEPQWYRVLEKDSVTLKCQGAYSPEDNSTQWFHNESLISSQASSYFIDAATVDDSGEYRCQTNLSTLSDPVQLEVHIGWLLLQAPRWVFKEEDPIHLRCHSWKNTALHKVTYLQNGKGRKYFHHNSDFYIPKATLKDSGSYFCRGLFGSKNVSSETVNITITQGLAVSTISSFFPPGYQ

Kd [1] [nM]	koff [1] [s⁻¹]	kon [1] [M⁻¹ s⁻¹]	Kd [2] [nM]	koff [2] [s⁻¹]	kon [2] [M⁻¹ s⁻¹]	Substance
13.5	0.00639	474000				human IgG1 with enhanced Fc (S239D/I332E) (antibody)
			34700	0.71	20400	human IgG1 with silenced Fc (L234F/L235E/D265A) (antibody)
424	0.00995	23500	2720	0.0675	24800	human IgG1 with wildtype Fc (antibody)
